# Experimental data taken from paper PMC9275567.
# Assays:
# [1] = biological target: RNA polymerase II (RNA Pol II) (human (endogenous in HeLa-Kyoto)) (UniProt P24928); experiment: cross-linking + co-IP
# [2] = biological target: FUsed in Sarcoma (FUS) in HeLa-Kyoto cells (human (endogenous in HeLa-Kyoto)) (UniProt P35637); experiment: cross-linking + co-IP
Substance,percent of cellular FUS cross-linked to RNA Pol II [1],"percent of RNA Pol II cross-linked to FUS (large particles, >70 nm) [2]",percent of RNA Pol II cross-linked to FUS (whole cell lysate) [2]
FUsed in Sarcoma (FUS) in HeLa-Kyoto cells (from UniProt P35637 1-526) (natural protein),21%,–,–
RNA polymerase II (RNA Pol II) (from UniProt P24928 1-1970) (complex),–,69%,87%
